PMC2494536 (Cell, 2008)
Like-named read-outs stand apart in the source and are kept apart here.

B1: kinase domain of Csk, residues 187-450 (domain or fragment, UniProt P41240 187-450, looked up)
chain: GWALNMKELKLLQTIGKGEFGDVMLGDYRGNKVAVKCIKNDATAQAFLAEASVMTQLRHSNLVQLLGVIVEEKGGLYIVTEYMAKGSLVDYLRSRGRSVLGGDCLLKFSLDVCEAMEYLEGNNFVHRDLAARNVLVSEDNVAKVSDFGLTKEASSTQDTGKLPVKWTAPEALREKKFSTKSDVWSFGILLWEIYSFGRVPYPRIPLKDVVPRVEKGYKMDAPDGCPPAVYEVMKNCWHLDAAMRPSFLQLREQLEHIKTHELHL
B2: kinase domain of wildtype chicken c-Src, residues 251-533 (domain or fragment, UniProt P00523 251-533, looked up)
chain: QTQGLAKDAWEIPRESLRLEVKLGQGCFGEVWMGTWNGTTRVAIKTLKPGTMSPEAFLQEAQVMKKLRHEKLVQLYAVVSEEPIYIVTEYMSKGSLLDFLKGEMGKYLRLPQLVDMAAQIASGMAYVERMNYVHRDLRAANILVGENLVCKVADFGLARLIEDNEYTARQGAKFPIKWTAPEAALYGRFTIKSDVWSFGILLTELTTKGRVPYPGMVNREVLDQVERGYRMPCPPECPESLHDLMCQCWRKDPEERPTFEYLQAFLEDYFTSTEPQYQPGENL

Experiments:
Experiment in all cases: SPR
[1] = target: B2
[2] = target: T1, Csk construct lacking the SH3 domain (SH2 and kinase domains), residues 68-450 (UniProt P41240 68-450)
[3] = target: T2, full-length Csk (C-terminal Src Kinase), residues 1-450 (UniProt P41240 1-450)
[4] = target: T1, Csk construct lacking the SH3 domain …; remark: listed apart in the source
[5] = target: T2, full-length Csk (C-terminal Src …); remark: listed apart in the source

Binder | Kd [1] | Kd [2] | Kd [3] | Kd [4] | Kd [5]
B1 | ~70 µM | – | – | – | –
B2 | – | ~30 µM | ~30 µM | ~4 µM | ~4 µM
